The chains are these.
B1: Lhca2 (natural protein, UniProt Q9SYW8 44-257, looked up)
chain: RAVAADPDRPIWFPGSTPPEWLDGSLPGDFGFDPLGLSSDPDSLKWNVQAEIVHCRWAMLGAAGIFIPEFLTKIGILNTPSWYTAGEQEYFTDKTTLFVVELILIGWAEGRRWADIIKPGSVNTDPVFPNNKLTGTDVGYPGGLWFDPLGWGSGSPAKLKELRTKEIKNGRLAMLAVMGAWFQHIYTGTGPIDNLFAHLADPGHATIFAAFTPK
B2: Lhca5 (natural protein, UniProt Q9C639 33-256, looked up)
chain: AAGGGINPTVAVERATWLPGLNPPPYLDGNLAGDYGFDPLGLGEDPESLKWYVQAELVHSRFAMLGVAGILFTDLLRTTGIRNLPVWYEAGAVKFDFASTKTLIVVQFLLMGFAETKRYMDFVSPGSQAKEGSFFFGLEAALEGLEPGYPGGPLLNPLGLAKDVQNAHDWKLKEIKNGRLAMMAMLGFFVQASVTHTGPIDNLVEHLSNPWHKTIIQTLFTSTS
B3: PnsL1 (natural protein, UniProt O80634 81-238, looked up)
chain: AEEIPKSYSPFVDREDGYSYYYPSDWREFDFRAHDSAFKDRYLQLQNVRVRFIPTEKNDIHEVGPMEEVVYDLVKHKFAAPNQVATIYDMKERVEDGKNYYTFEYGLRTPIYATTSFATVAVGNNRYYTLIVGANERRWRKVKKQLQVVADSLKILQI
B4: PnsB3 (natural protein, UniProt Q9LU21 49-204, looked up)
chain: AISTAPASQPPAADEPDEPPAVDFAFVHSVLLPDGTPDVHWRRANGGQKLRDIMLDSNIELYGPYSKPLSNCAGVGTCATCMVEIVNGKELLNPRTDIEKEKLKRKPKNWRLACQTNVGNPDSTGLVVIQQLPEWKAHEWNIPKNIPNDDDLETST
B5: PnsB2 (natural protein, UniProt Q94AQ8 18-348, looked up)
chain: SSISAPQTQTINTEKLEDKFGRKGIKFSESNNIPMVELKVRNGSSLKLSLSDAHVLSYKPKVYWKDEGFEEVLYTVDGDESRGGVGVVIVNGEEPKGGSSVISGCDWSVKDTDSDAIDALQIELSCTAGVLDITYIVSLYPVSMATALVVKNNGRKPVTLKPGIMSYLRFKKRSGAGIQGLKGCSYCPNPPLSSPFELLSPSEAMKAESSGWFGSEEGEKPGIWAVEDSVITLLEKKMSRIYGAPPAERLKAVYNTPPSKFETIDQGRGLFFRMIRIGFEEMYVGSPGSMWDKYGKQHYFVCTGPTSMLVPVDVASGETWRGAMVIEHDNL
B6: Lhca6 (natural protein, UniProt Q8LCQ4 34-270, looked up)
chain: SSTGGRLMRERLVVVRAGKEVSSVCEPLPPDRPLWFPGSSPPEWLDGSLPGDFGFDPLGLGSDPDTLKWFAQAELIHSRWAMLAVTGIIIPECLERLGFIENFSWYDAGSREYFADSTTLFVAQMVLMGWAEGRRWADLIKPGSVDIEPKYPHKVNPKPDVGYPGGLWFDFMMWGRGSPEPVMVLRTKEIKNGRLAMLAFLGFCFQATYTSQDPIENLMAHLADPGHCNVFSAFTSH
B7: PnsB1 (natural protein, UniProt Q9S9N6 45-461, looked up)
chain: VNLKKKNNPWLDPFDSGEDPDNEYGSLFADGKQDEDPRPPDNPDNPYGFLKFPKGYTVELASLPLKIRGDVRRCCCVISGGVYENLLFFPTIQLIKDRYPGVQVDILTTERGKQTYELNKNVRWANVYDPDDHWPEPAEYTDMIGLLKGRYYDMVLSTKLAGLGHAAFLFMTTARDRVSYIYPNVNSAGAGLMLSETFTAENTNLSELGYSMYTQMEDWLGRPFRSVPRTPLLPLRVSISRKVKEVVAAKYRNAGAVTGKFIVIHGIESDSKASMQSKGDADSLLSLEKWAKIIKGVRGFKPVFVIPHEKERENVEDFVGDDTSIVFITTPGQLAALINDSAGVIATNTAAIQLANARDKPCIGLFSSEEKGKLFVPYAEEKSNCVIIASKTGKLADIDIGTVKNAMQVFEGSLALV
B8: NdhD (natural protein, UniProt P26288 1-500, looked up)
chain: MNDFPWLTIIVVFPISAGSLMLFLPHRGNKVNKWYTICICILELLLTTYAFCYNFKMDDPLIQLSEDYKWIDFFDFYWRMGIDGLSIGTILLTGFITTLATLAAFPVTRDSRFFHFLMLAMYSGQIGSFSSRDLLLFFIMWELELIPVYLLLSMWGGKKRLYSATKFILYTAGSSIFLLIGVLGISLYGSNEPTLNLELLANKSYPVTLEILFYIGFLIAFAVKSPIIPLHTWLPDTHGEAHYSTCMLLAGILLKMGAYGLVRINMELLPHAHSMFSPWLLVVGTIQIIYAASTSPGQRNLKKRIAYSSVSHMGFIIIGISSITDPGLNGAILQIISHGFIGAALFFLAGTSYDRIRLVYLDEMGGMAISIPKIFTMFTILSMASLALPGMSGFIAEFIVFFGIITSQKYFLISKIFIIFVMAIGMILTPIYLLSMLRQMFYGYKLINIKNFSFFDSGPRELFLSISILLPIIGIGIYPDFVLSLASDKVESILSNYFYG
B9: PnsL5 (natural protein)
chain: not shown
B10: PnsL2 (natural protein, UniProt Q9XI73 69-190, looked up)
chain: WGTRSFIKEKYFMPGLSPEDAAARIKQTAEGLRDMREMLDHMSWRYVIFYIRLKQAYLSQDLTNAMNILPESRRNDYVQAANELVENMSELDFYVRTPKVYESYLYYEKTLKSIDNVVEFLA

Holding throughout (experiment): cryo-EM structure
One test concerns the target NdhF (Arabidopsis thaliana (endogenous in the …, UniProt P56752 1-746)).
The test “PnsB1” concerns the target B7.
For a further test, the target named is T1, NdhA (Arabidopsis thaliana (endogenous in the …, UniProt Q37165 1-360)).
T1 sequence (looked up): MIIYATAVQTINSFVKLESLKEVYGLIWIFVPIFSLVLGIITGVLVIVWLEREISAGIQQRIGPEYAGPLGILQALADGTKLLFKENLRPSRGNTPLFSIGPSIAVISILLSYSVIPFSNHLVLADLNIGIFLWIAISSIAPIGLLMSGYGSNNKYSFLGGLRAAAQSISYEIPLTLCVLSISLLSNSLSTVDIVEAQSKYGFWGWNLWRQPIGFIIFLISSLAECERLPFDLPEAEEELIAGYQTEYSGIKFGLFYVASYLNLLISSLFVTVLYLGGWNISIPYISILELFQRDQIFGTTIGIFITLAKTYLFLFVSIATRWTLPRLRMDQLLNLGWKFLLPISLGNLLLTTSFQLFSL

The target of the test “PnsB2” is B5.
The test “NdhD” addresses B8.
The target of the test “PnsL1” is B3.

Chain of NdhF (Arabidopsis thaliana (P56752 whole entry): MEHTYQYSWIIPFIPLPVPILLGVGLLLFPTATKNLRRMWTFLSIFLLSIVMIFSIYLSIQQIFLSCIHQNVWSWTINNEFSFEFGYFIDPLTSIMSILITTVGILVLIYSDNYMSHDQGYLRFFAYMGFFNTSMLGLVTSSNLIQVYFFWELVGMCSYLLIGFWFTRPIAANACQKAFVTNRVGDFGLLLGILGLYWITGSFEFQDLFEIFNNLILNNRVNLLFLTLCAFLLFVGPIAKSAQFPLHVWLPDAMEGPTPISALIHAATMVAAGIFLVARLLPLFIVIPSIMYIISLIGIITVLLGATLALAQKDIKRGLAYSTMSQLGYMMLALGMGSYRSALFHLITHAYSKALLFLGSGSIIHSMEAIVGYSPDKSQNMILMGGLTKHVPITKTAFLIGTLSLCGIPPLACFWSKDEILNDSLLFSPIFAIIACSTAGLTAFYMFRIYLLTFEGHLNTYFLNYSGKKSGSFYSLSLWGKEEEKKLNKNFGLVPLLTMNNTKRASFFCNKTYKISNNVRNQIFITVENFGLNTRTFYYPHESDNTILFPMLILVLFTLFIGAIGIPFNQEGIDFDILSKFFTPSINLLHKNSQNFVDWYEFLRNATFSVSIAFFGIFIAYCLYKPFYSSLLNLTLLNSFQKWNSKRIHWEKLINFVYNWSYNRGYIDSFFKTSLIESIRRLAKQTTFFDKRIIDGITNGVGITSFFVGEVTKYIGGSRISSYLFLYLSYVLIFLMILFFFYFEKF

B1: in the test with NdhF, the binding result is given as “binds”. On to B2, for which the binding result in the test with PnsB1 is given as “binds”. For the molecule B3, the binding result in the test with NdhA is “binds”. B4: the binding result with PnsB2, with NdhF and with PnsB1 was “binds” throughout. Regarding B5, the binding result with NdhF is “binds”. With B6, the binding result with PnsB2 and with NdhF was “binds” each time. As for B7, the binding result in the test with NdhD and with NdhF was “binds” each time.

Take B8: in the test with NdhF, the binding result is listed as “binds”.

In the case of B9, the binding result with NdhD is reported as “binds”. With B10, the binding result with NdhA and with PnsL1 was “binds” throughout.
